# B1: MKK7 D-site peptide (second D-site) / JNK1 alpha1 (MAPK8 isoform 1) L198A, full length (parent complex)
# chain 1: SQPQRPRPTLQLPLANEAFEQP
# chain 2: MSRSKRDNNFYSVEIGDSTFTVLKRYQNLKPIGSGAQGIVCAAYDAILERNVAIKKLSRPFQNQTHAKRAYRELVLMKCVNHKNIIGLLNVFTPQKSLEEFQDVYIVMELMDANLCQVIQMELDHERMSYLLYQMLCGIKHLHSAGIIHRDLKPSNIVVKSDCTLKILDFGLARTAGTSFMMTPYVVTRYYRAPEVIAGMGYKENVDLWSVGCIMGEMVCHKILFPGRDYIDQWNKVIEQLGTPCPEFMKKLQPTVRTYVENRPKYAGYSFEKLFPDVLFPADSEHNKLKASQARDLLSKMLVIDASKRISVDEALQHPYINVWYDPSEAEAPPPKIPDKQLDEREHTIEEWKELIYKEVMDLEERTKNGVIRGQPSPLAQVQQ
# Variants of: B1
row,Variant,screen value
1,"chain 1 R5A, chain 1 L14A",-0.406 Z-score of the enrichment rate within one screen of 711 sequences
2,chain 1 P6Q,1.26 Z-score of the enrichment rate within one screen of 711 sequences
3,chain 1 P6C,0.713 Z-score of the enrichment rate within one screen of 711 sequences
4,chain 1 P6A,1.29 Z-score of the enrichment rate within one screen of 711 sequences
5,chain 1 P6H,1.12 Z-score of the enrichment rate within one screen of 711 sequences
6,chain 1 P6T,1.07 Z-score of the enrichment rate within one screen of 711 sequences
7,chain 1 P6V,0.968 Z-score of the enrichment rate within one screen of 711 sequences
8,chain 1 P6L,1.25 Z-score of the enrichment rate within one screen of 711 sequences
9,chain 1 P6F,1.06 Z-score of the enrichment rate within one screen of 711 sequences
10,"chain 1 L10A, chain 1 P13A",-0.374 Z-score of the enrichment rate within one screen of 711 sequences
11,chain 1 Q11G,0.875 Z-score of the enrichment rate within one screen of 711 sequences
12,chain 1 Q11H,1.89 Z-score of the enrichment rate within one screen of 711 sequences
13,chain 1 Q11Y,2.41 Z-score of the enrichment rate within one screen of 711 sequences
14,chain 1 Q11E,1.43 Z-score of the enrichment rate within one screen of 711 sequences
15,chain 1 Q11W,2.17 Z-score of the enrichment rate within one screen of 711 sequences
16,chain 1 Q11N,1.79 Z-score of the enrichment rate within one screen of 711 sequences
17,chain 1 Q11I,1.51 Z-score of the enrichment rate within one screen of 711 sequences
18,chain 1 Q11C,1.43 Z-score of the enrichment rate within one screen of 711 sequences
19,chain 1 Q11T,2.32 Z-score of the enrichment rate within one screen of 711 sequences
20,"chain 1 R5A, chain 1 L10A",-0.687 Z-score of the enrichment rate within one screen of 711 sequences
21,"chain 1 P8A, chain 1 L14A",-0.643 Z-score of the enrichment rate within one screen of 711 sequences
22,"chain 1 P3A, chain 1 N16A",1.34 Z-score of the enrichment rate within one screen of 711 sequences
23,"chain 1 Q11A, chain 1 P13A",1.38 Z-score of the enrichment rate within one screen of 711 sequences
24,chain 1 P8N,0.584 Z-score of the enrichment rate within one screen of 711 sequences
25,chain 1 P8Q,0.499 Z-score of the enrichment rate within one screen of 711 sequences

row,Variant,screen value
1,chain 1 P8C,0.83 Z-score of the enrichment rate within one screen of 711 sequences
2,chain 1 P8W,0.971 Z-score of the enrichment rate within one screen of 711 sequences
3,chain 1 P8M,2.24 Z-score of the enrichment rate within one screen of 711 sequences
4,chain 1 P8I,0.845 Z-score of the enrichment rate within one screen of 711 sequences
5,chain 1 P8V,0.848 Z-score of the enrichment rate within one screen of 711 sequences
6,chain 1 P8F,1.67 Z-score of the enrichment rate within one screen of 711 sequences
7,chain 1 P8K,1.01 Z-score of the enrichment rate within one screen of 711 sequences
8,chain 1 P8L,1.88 Z-score of the enrichment rate within one screen of 711 sequences
9,"chain 1 R5A, chain 1 Q11A",0.344 Z-score of the enrichment rate within one screen of 711 sequences
10,"chain 1 R5A, chain 1 L12A",-0.522 Z-score of the enrichment rate within one screen of 711 sequences
11,chain 1 A15K,1.73 Z-score of the enrichment rate within one screen of 711 sequences
12,chain 1 A15I,0.806 Z-score of the enrichment rate within one screen of 711 sequences
13,chain 1 A15Q,1.51 Z-score of the enrichment rate within one screen of 711 sequences
14,chain 1 A15V,1.42 Z-score of the enrichment rate within one screen of 711 sequences
15,chain 1 A15F,1.59 Z-score of the enrichment rate within one screen of 711 sequences
16,chain 1 A15S,1.46 Z-score of the enrichment rate within one screen of 711 sequences
17,chain 1 A15C,1.49 Z-score of the enrichment rate within one screen of 711 sequences
18,chain 1 A15E,1.37 Z-score of the enrichment rate within one screen of 711 sequences
19,chain 1 A15T,1.58 Z-score of the enrichment rate within one screen of 711 sequences
20,chain 1 A15W,1.84 Z-score of the enrichment rate within one screen of 711 sequences
21,"chain 1 P8A, chain 1 P13A",0.299 Z-score of the enrichment rate within one screen of 711 sequences
22,"chain 1 P8A, chain 1 Q11A",0.343 Z-score of the enrichment rate within one screen of 711 sequences
23,"chain 1 P3A, chain 1 P8A",0.357 Z-score of the enrichment rate within one screen of 711 sequences
24,chain 1 T9Y,1.15 Z-score of the enrichment rate within one screen of 711 sequences
25,chain 1 T9F,1.43 Z-score of the enrichment rate within one screen of 711 sequences

row,Variant,screen value
1,chain 1 T9C,1.27 Z-score of the enrichment rate within one screen of 711 sequences
2,chain 1 T9L,1.24 Z-score of the enrichment rate within one screen of 711 sequences
3,chain 1 T9M,1.06 Z-score of the enrichment rate within one screen of 711 sequences
4,chain 1 T9E,0.507 Z-score of the enrichment rate within one screen of 711 sequences
5,chain 1 T9W,1.21 Z-score of the enrichment rate within one screen of 711 sequences
6,chain 1 T9Q,0.994 Z-score of the enrichment rate within one screen of 711 sequences
7,chain 1 T9H,1.34 Z-score of the enrichment rate within one screen of 711 sequences
8,chain 1 N16P,0.929 Z-score of the enrichment rate within one screen of 711 sequences
9,chain 1 N16L,1.52 Z-score of the enrichment rate within one screen of 711 sequences
10,chain 1 N16V,1.95 Z-score of the enrichment rate within one screen of 711 sequences
11,chain 1 N16H,1.43 Z-score of the enrichment rate within one screen of 711 sequences
12,chain 1 N16W,2.16 Z-score of the enrichment rate within one screen of 711 sequences
13,chain 1 N16C,1.62 Z-score of the enrichment rate within one screen of 711 sequences
14,chain 1 N16T,1.34 Z-score of the enrichment rate within one screen of 711 sequences
15,chain 1 N16A,1.29 Z-score of the enrichment rate within one screen of 711 sequences
16,chain 1 N16G,1.5 Z-score of the enrichment rate within one screen of 711 sequences
17,chain 1 N16E,1.28 Z-score of the enrichment rate within one screen of 711 sequences
18,"chain 1 R5A, chain 1 P13A",0.748 Z-score of the enrichment rate within one screen of 711 sequences
19,"chain 1 P6A, chain 1 L12A",-0.68 Z-score of the enrichment rate within one screen of 711 sequences
20,"chain 1 R7A, chain 1 L12A",-0.492 Z-score of the enrichment rate within one screen of 711 sequences
21,"chain 1 Q4A, chain 1 L10A",-0.57 Z-score of the enrichment rate within one screen of 711 sequences
22,"chain 1 P8A, chain 1 T9A",0.477 Z-score of the enrichment rate within one screen of 711 sequences
23,chain 1 P3I,1.41 Z-score of the enrichment rate within one screen of 711 sequences
24,chain 1 P3D,1.22 Z-score of the enrichment rate within one screen of 711 sequences
25,chain 1 P3M,1.81 Z-score of the enrichment rate within one screen of 711 sequences
